Measured values: the nanobody polyreactivity screen of Harvey et al. (2022)

Experiment: yeast display, Sf9 membrane polyspecificity reagent, FACS + sequencing; frameworks hold sequencing errors
Summary of the method: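 Polyreactivity labels are assigned by the sorting gate from which each nanobody was recovered. The gates were low and high (top ~1%), set on anti-HA fluorescence for expression and streptavidin fluorescence for reagent binding. Before sorting, galactose-induced (36–48 hours) yeast display cells were stained for 1 hour at 4 °C with 10% biotinylated, detergent-solubilized Sf9 membrane reagent.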

Row | Sequence | polyreactivity (PSR sort gate)
1 | QVQLVESGGGLVQAGGSLRLSCAASGFTFSYYPMGWYRLAPGKERELVAAITSGGSTYYADSVKGRFTISRDNAKNTVYLQMNSLKPEDTAVYYCNARGYGTLNVRRERMDYWGQGTQVTVSS | high polyreactivity
2 | QVQLVESGGGLVQAGGSLRLSCAASGRILRYYAMGWYRQAPGKERELVAVITSSDGSTYYADSVKGRFTISRDNAKNTVYLQMNSLKPEDTAVYYCAADYHWYRRPGYNYWGQGTQVTVSS | low polyreactivity
3 | QVQLVESGGGLVQAGGSLRLSCAASGSTFTFNAMGWYRQATGKERELVAAITRSGTSTYYADSVKGRFTISRDNAKNTVYLQMNSLKPEDNAVYYCAAGRLWKTYEYYYWGQGTQVTVSS | high polyreactivity
4 | QVQLVESGGGLVQAGGSLRLSCAAYGGIFSYNAKGWYSQAPGKEREFVASISSSGGRTYYADSVKGRFTISRDNAQNTVYLQMKSLKPEDTAVYYCAKRGQLRHYSWGQGTQVTVSS | low polyreactivity
5 | QVQLVESGGGLVQAGGSLRLSSAASGSTFGYYAMGWYRQPPGKERELVAAISSSAGTTYYADSVKGCFTISRDNAKNTVYLQMNSLKPEDTAVYYCAADAVSGREYWGQGTQVTVST | low polyreactivity
6 | QVQLVESGGGLVEAGGRLSLSCAASGSIFHRNAMGGFRQAPGTERELVAAITYSGGGTYYADSVKGRFTISRDNAKNTVYLQMNSLKPEDTAVYYCAADYKSKYSRYIYDYWGQGPQVTVSS | low polyreactivity
7 | QVQLVESGGGLVQPGGSLRLSCAASGRTIGVYAMGWYRQAPGKERELVAAITTSGDSTYYADSVKGRFTISRDNAKNTVYLQMNSLKPEDTAVYYCAADYYYVYSSFGHYYWGQGTQVTVSS | low polyreactivity
8 | QVQLVESGGGLVQAGGSLRLSCAASGFTFYKYAMGWYRQAPGKERELVAGIRRGGTNYADSVKGRFTISRDNAKNTVYLQMNSLKPEDTAVYYCAADVRPYYSAYRGRYYYWGQGTQVTVSS | high polyreactivity
9 | QVQLVESGGGLVQAGGSLRLSCAASGLTYAKYVMRWYRQAPGNERELVAAISRSGGSTFYADSVKGRFTISRDNAKNTVYLQMNSLKPEDTAVYYCAAAAWDPKGSRYDYWGQGTQVTVSS | low polyreactivity
10 | QVQLQESVGGLVQASGSIFHVPNMGWYRQAPGNERELVAGLAGGGNTNYADIVKGRFTISRDNAKNTVYLQRNSLDTAVYYCAVVGFGRGTHIYWGQGTQVTVSS | high polyreactivity
11 | QVQLVESGGGLVQAGGSLRLSCASSGFTFSDYAMAWYRQAPGKERELVADISTSGGSTYYADSVKGRFTISRDNAKNTVYLQMNSLKPEDTAVYYCAVRPGYYWGYWPRFGYWGQGTQVTVSS | low polyreactivity
12 | QVQLQESGGGPVLAGGSLRLSCEASGTIFVRLDMGWYRQAPGKEREFVATIGSGSSTYYADSVKGSFTISRDNVKNTVYLQMNSLKPEETAVYYCAVSAAEQSRHYYWDQGTQVTVSS | low polyreactivity
13 | QVQLVESGGGLVQAGGSLRLSCAASGLTLKRYAMGWYRQAPGKERELDAAISKSGGSTYYADSVKGRFTSSRDNAKNTVYLQMNSLKPEDTPVYYCAADSYNLWDDYWGQGTQVTVSS | low polyreactivity
14 | QVQHVESGGGLVQAGGSLRLSCAASGFIFYRYTMVWYRQAHGKERELVAAISQSGGNTYYADSVKGRFTISRDNAKNTVYLLMNSLKPEDTAVYYCNAVYYYYAGNYWGQGTQVTVSS | high polyreactivity
15 | QVQLVESGGGLVQAGGSLRLSCAASGITFLKNAMGWYRQAPGKERELVAAISSSGGSTYYADSVKGRFTISRDNAKNTVYLQMNSLKPEDTAVYFCAARIYWYTPGRRGYTYDYWGQGTQVTVSS | high polyreactivity
16 | QVQLVESGGRLVQAGGILRLSCAASGIIFKDYAMGWYRQATGKERELVAAISWSGSSTYYADSVKGRFTISRDNAKNTVYLQMNSLKPEDTAVYYCNAFPGDYRYDYWGQGTQVTVSS | high polyreactivity
17 | QDQLVESGGGLVQAGGSLRLSCASSGSIITQYAMGWYRQAPGKERELVAAITSGGSPYADSVKGRFTISRDNAKNTVYLQMNSLKPEDTADYYCATPYSYRGVTFNYWGQGTQVTVSS | low polyreactivity
18 | QVQLVESGGGLVQAGGSLRLSCAASGLTLTSNAMGWYRQAPGKERELVAAINGSGGITYYADSVKGRFTISRDNAKNTVYLQMNSLKPEDTAVYYCNTVHYNLDYEYDYWGQGTQVTVSS | low polyreactivity
19 | QVQLVESGGGLVQAGGSLRLSCAASGFTFLGYDMGWYRQAPGKERELVAAIDYSGGSTYYADSVKGRFTISRDNAKNTVYLQMNSLKPEDTAVYYCAAEYQSGPYTWYEYWGQGTQVTVSS | high polyreactivity
20 | QVQLVESGGGLVQAGGSLRLSCAASGSIFDYNGMGWYRQAPGKERELVAAISSGGSTNYADSVKGRFTISRDNAKNTVYLQMNSLKPEDTAVYYCAAVGRAKYYYWGQGTQVTVSS | low polyreactivity
21 | QVQLVESGGGLVQAGGSLRLSCAASGSTFKWYAMGWYRQAPGKERELVAGISWTGASTYYADSVKGRFTISRDNAKNTVYLQMNSLKPDDTAVYYCAADRTYFALLWTGRARYDYWGQGTQVTVSS | high polyreactivity
22 | QVQLVESGGGLVQAGGSLRLSCAASGSIFGLYAMGWYRQAPGIERALVAAITTTGGSTYYADSVKGRFTISRDNAKNTVYLQMNSLKPEDTAVYYCNADYVAYGPEYDYWGQGTQVTVSS | low polyreactivity

Row | Sequence | polyreactivity (PSR sort gate)
23 | QVQLVESGGGLLKAGGSLRLSCAASRITFYIYPIVWYRQAPGKERELVATISWSDGRTYYADSVKGRFTISRDNAEHTVYLQLYSLKPEDTAVYYCAADWWYYQFDYEYWGQGTPVTVSS | low polyreactivity
24 | QVQLEESGGGLFQAGGSLRLSCAASGSTFYAYAMGWYRQAPGKERELVAAISSDGTNYADSVKGRFTISRDNAKNTVYLQMNSLKPEDTAVYYCAADMLLYSSQDNDYWGQGTLVTVSS | low polyreactivity
25 | QDQLVESGGGLVQAGGSLRLSCAASGIIFYDYAMGWYRQAPGKERELVAAITSNGDNTYYADSVKGRFTISRDNAKNTVYLQMNSLKPEDTAGYYCAVDGSFAADFDNYLEEYGYWGQGTQVTVSS | low polyreactivity
26 | QVQLVESGGGLVQAGGSLRLSCAASGPIFWGYAMGWYRQAPGKERELVAAITSGGNTNYADSVKGRFTISRDNAKNTVYLQMISLKPEDTAVSYCAKRTRPWRDFDYWGQGTQVTVSS | low polyreactivity
27 | QVQLVESGGGLVQAGGSLRLSCAASGSTFFYYAMGWYRQAPGKERELVARISGGGSTNYADSVKGRFTISRDNAKNTVYLQMNSLKPEDTAVYYCAADRYHYYRYSYGRYGYWGQGTQVTVSS | high polyreactivity
28 | QVQLVESGGGVVQAGGSLRLSCAASGSTFYSYAMGWYRQAPGKERELVAAISSGGGRTYYADSVKGRFTISRDNAKNTVYLQMNSLKPEDTAVYYCAASYWYRDYYYWGQGTQVTVSS | high polyreactivity
29 | QVQLQESGGGLVQAGGSLRPRCAPAGTIFLSVNMGWYRHAPGEEREFVASITQGATTNYADSLIGRFTISRDNAKNTVYLQMNCQKPEDTAVYYCAAYPRFYGGKYGEYGYWGQGTQVTVSS | high polyreactivity
30 | QVQLVESGGGLVQAGGSLRLSCAASGSSFYDNAMGWYRQAPAKERELVAAITWDGDGTYYADSVKGRFTISRDNAKNTVYLQMNSLKPEDTAVYYCAADYYLVGFDYYYWYGYWGQGTQVTVSS | low polyreactivity
31 | QVQLVESGGGLVQAGGSLRLSCASSGRIFFMYAMGWYIQAPGKERELVAAINKSGGSTYADSVKGRFTISRDNANNTVYLQMNSLKPEDTAVYYCATENTDSGESVYIVKYGSDYWGQGTQVTVSS | low polyreactivity
32 | QVKLVETGGGLVQAGGSLRLSCAASGITFAYYAMGWYRQAPGKERELVARISRRGGSTYYADSVKGRFTISRDNAKNNVYLQMNSLKPEDTAVYYCAARVVVPKPYVDGDYWGEGTQVTVSS | high polyreactivity
33 | QVQLQESGGGLEQAGGSLRLSCAASGYISEIGTMGWYRQAPGKEREFVATIVVGSTTNYADSVKGRFTISRDNAKNTVYLQPESGRYRGVLLRGWLLAVGKFNYWGQGTQETVSS | low polyreactivity
34 | QVQLVESGGGLVQAGGSLRLSCAASGITFGGNAMGWYRQAPGKERELVAAISSSGGSTYYADSVKGRFTISRDNAKNTVYLQMNSLKPEDTAVYYCAARNRYPLRFYYWGQGTQVTVSS | high polyreactivity
35 | QVQLVESGGGLVQAGGSLRLSCAASGRTIYWNAMVWSRQAPGKERELVAAISNGGTTTYYADSVKGRFTISRDNAKNTVYLQMNSLKPEDTAVYYCAGDIRYFDYDYWGQGTQLTVSS | high polyreactivity
36 | QVQLVESGGGLVQAGGSLRLSCAASGRIFTRYAMGWYRQAPGKERELVSAISSGGSTYYADSVKGRFTISRDNAKNTVYLQMNSLKPEDTAVYYCAAKTRPQRTYSTRQQMNYWGQGTQVTVSS | high polyreactivity
37 | QVQLVESGGGLVQAGGSLRLSCAASGFTFRNNAMGWYRQAPGKDRELVAAITARGGSTYYADSVKGRFTISRDNAKNTVYLQMNSLKPEDTAVYYCATDDYPWGRHPWYAGYDSWGQGTQVTVSS | low polyreactivity
38 | QVQLVESGGGLVQAGGSLRLSCAASGSIFGYNAMGWYRQAPGKERELVAVITRSDGSTYYADSVKGRFTISRDNAKNTVYLQMNSLKPEDTAVYYCNAETHVYYWGVVIYEYNYWGQGTQVTVSS | low polyreactivity
39 | QVQLVESGGVLVQAGGSLRLSCAASGNIFVPYAMGWYRQAPGKERDLVAAISSRGGRTYYADSVKGRFTISRDNAKNTVYLQMNSLKPEDTAVFYCNKVAKSSVLTLDYWGQGTQVTVSS | high polyreactivity
40 | QVQLVESGGGLVQAGGSLRLSCAASGLIFYKYAMGWYRQAPGKERELVASISTGGGSTYYADSVKGRFTISRDNAKNTVYLQMNSLKPEDTAVYYCAARWWSRFRGSHSLYDYWGQGTQVTVSS | high polyreactivity
41 | QVQLVESGGGLVQAGGSLGLSCAASGSIFSDYAMGWYRQATGKERELVAAITQSGGSTYADSVKGRFTISRDNAKNTVYLQMISLKPEDTAVYYCAADEVPGFGYPPYPWFDYWGQGTQVTVSS | low polyreactivity
42 | QVQLVESGGGLVQAGGSLRLSCAASGITIRPYTMGWYRQAPGKERELVARISRRGGSTYYADSVKGRFTISRDNAKNTVYLQMNSLKPEDTAVYYCATRSRAHISPYDYWGQGTQVTVSS | high polyreactivity
43 | QVQLVESGGGLVQAGGSLRLSCAASGRIFYYNSKGWYRQAPGKERELVAAITSGDNTKYADSVKGRFTISRDKAKNTVYLQMNSLKPEDTAVYYCAARRYAPYQRRMDYWGQGTQVTVSS | high polyreactivity
